Results as given in patent US20060058231A1 (Xencor, published 2006).

T1: BMPRIb receptor-Fc fusion (UniProt O00238 14-126)
T1 construct: BMP receptor-Fc fusion used at 5 ug/mL; also called ALK-6
T1 sequence (looked up): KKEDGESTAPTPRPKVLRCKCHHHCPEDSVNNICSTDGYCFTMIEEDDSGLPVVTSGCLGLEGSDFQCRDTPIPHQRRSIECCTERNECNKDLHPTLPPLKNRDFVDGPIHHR

T2: BMPRII receptor-Fc fusion (UniProt Q13873 27-151, limits assumed)
T2 construct: BMP receptor-Fc fusion used at 5 ug/mL
T2 sequence (looked up): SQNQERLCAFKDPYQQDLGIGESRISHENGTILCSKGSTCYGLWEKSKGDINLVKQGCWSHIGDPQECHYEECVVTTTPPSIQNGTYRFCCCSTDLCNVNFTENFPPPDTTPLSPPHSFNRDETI


Assays:
Assay in all cases: ELISA-like plate assay, captured BMP-7 from conditioned media, receptor-Fc detection
[1] = target: T1, BMPRIb receptor-Fc fusion
[2] = target: T2, BMPRII receptor-Fc fusion
[3] = target: T3, ActRIIa receptor-Fc fusion (UniProt P27037 20-134, limits assumed)
T3 construct: BMP receptor-Fc fusion used at 5 ug/mL

[4] = target: T4, BMPRIa receptor-Fc fusion (UniProt P36894 24-152, limits assumed)
T4 construct: also called ALK-3
T4 sequence (P36894 24-152 limits assumed): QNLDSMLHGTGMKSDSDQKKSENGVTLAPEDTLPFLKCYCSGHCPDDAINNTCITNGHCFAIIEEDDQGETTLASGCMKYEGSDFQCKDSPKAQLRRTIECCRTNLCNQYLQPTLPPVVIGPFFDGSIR

T3 sequence (P27037 20-134 limits assumed): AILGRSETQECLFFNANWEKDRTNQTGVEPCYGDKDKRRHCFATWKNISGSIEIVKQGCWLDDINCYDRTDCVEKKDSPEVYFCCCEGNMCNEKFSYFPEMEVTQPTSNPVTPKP

| BMPRIb binding (relative to wild type = 1.0) [1] | BMPRII binding (relative to wild type = 1.0) [2] | ActRIIa binding (relative to wild type = 1.0) [3] | BMPRIa binding (relative to wild type = 1.0) [4] | Binder |
| --- | --- | --- | --- | --- |
| 1.38 relative to wild type | 0.73 relative to wild type | 1.02 relative to wild type | 1.02 relative to wild type | BMP-7 variant V26E (ligand, In conditioned media; numbering on mature BMP-7) STGGKQRSQNRSKTPKNQEALRMASEAENSSSDQRQACKKHELYVSFRDLGWQDWIIAPEGYAAYYCEGECAFPLNSYMNATNHAIVQTLVHFINPETVPKPCCAPTQLNAISVLYFDDSSNVILKKYRNMVVRACGCH |
| 0.37 relative to wild type | 0.26 relative to wild type | 0.62 relative to wild type | 0.32 relative to wild type | BMP-7 variant R129S (ligand, In conditioned media; numbering on mature BMP-7) STGGKQRSQNRSKTPKNQEALRMASVAENSSSDQRQACKKHELYVSFRDLGWQDWIIAPEGYAAYYCEGECAFPLNSYMNATNHAIVQTLVHFINPETVPKPCCAPTQLNAISVLYFDDSSNVILKKYSNMVVRACGCH |
| 0.94 relative to wild type | 0.98 relative to wild type | 1.17 relative to wild type | 0.81 relative to wild type | BMP-7 variant S77E (ligand, In conditioned media; numbering on mature BMP-7) STGGKQRSQNRSKTPKNQEALRMASVAENSSSDQRQACKKHELYVSFRDLGWQDWIIAPEGYAAYYCEGECAFPLNEYMNATNHAIVQTLVHFINPETVPKPCCAPTQLNAISVLYFDDSSNVILKKYRNMVVRACGCH |
| 2.75 relative to wild type | 1.77 relative to wild type | 1.58 relative to wild type | 1.29 relative to wild type | BMP-7 variant Y78S (ligand, In conditioned media; numbering on mature BMP-7) STGGKQRSQNRSKTPKNQEALRMASVAENSSSDQRQACKKHELYVSFRDLGWQDWIIAPEGYAAYYCEGECAFPLNSSMNATNHAIVQTLVHFINPETVPKPCCAPTQLNAISVLYFDDSSNVILKKYRNMVVRACGCH |
| 2.39 relative to wild type | 3.13 relative to wild type | 2.26 relative to wild type | 1.36 relative to wild type | BMP-7 variant Y78R (ligand, In conditioned media; numbering on mature BMP-7) STGGKQRSQNRSKTPKNQEALRMASVAENSSSDQRQACKKHELYVSFRDLGWQDWIIAPEGYAAYYCEGECAFPLNSRMNATNHAIVQTLVHFINPETVPKPCCAPTQLNAISVLYFDDSSNVILKKYRNMVVRACGCH |
| 1.34 relative to wild type | 1.47 relative to wild type | 1.07 relative to wild type | 1.36 relative to wild type | BMP-7 variant Y78H (ligand, In conditioned media; numbering on mature BMP-7) STGGKQRSQNRSKTPKNQEALRMASVAENSSSDQRQACKKHELYVSFRDLGWQDWIIAPEGYAAYYCEGECAFPLNSHMNATNHAIVQTLVHFINPETVPKPCCAPTQLNAISVLYFDDSSNVILKKYRNMVVRACGCH |
| 0.69 relative to wild type | 0.85 relative to wild type | 0.92 relative to wild type | 0.75 relative to wild type | BMP-7 variant Y78P (ligand, In conditioned media; numbering on mature BMP-7) STGGKQRSQNRSKTPKNQEALRMASVAENSSSDQRQACKKHELYVSFRDLGWQDWIIAPEGYAAYYCEGECAFPLNSPMNATNHAIVQTLVHFINPETVPKPCCAPTQLNAISVLYFDDSSNVILKKYRNMVVRACGCH |

Continued, binder first:

| Binder | BMPRIb binding (relative to wild type = 1.0) [1] | BMPRII binding (relative to wild type = 1.0) [2] | ActRIIa binding (relative to wild type = 1.0) [3] | BMPRIa binding (relative to wild type = 1.0) [4] |
| --- | --- | --- | --- | --- |
| BMP-7 variant R129N (ligand, In conditioned media; numbering on mature BMP-7) STGGKQRSQNRSKTPKNQEALRMASVAENSSSDQRQACKKHELYVSFRDLGWQDWIIAPEGYAAYYCEGECAFPLNSYMNATNHAIVQTLVHFINPETVPKPCCAPTQLNAISVLYFDDSSNVILKKYNNMVVRACGCH | 1.03 relative to wild type | 1.4 relative to wild type | 1.1 relative to wild type | 0.89 relative to wild type |
| BMP-7 variant W55R (ligand, In conditioned media; numbering on mature BMP-7) STGGKQRSQNRSKTPKNQEALRMASVAENSSSDQRQACKKHELYVSFRDLGWQDRIIAPEGYAAYYCEGECAFPLNSYMNATNHAIVQTLVHFINPETVPKPCCAPTQLNAISVLYFDDSSNVILKKYRNMVVRACGCH | 2.17 relative to wild type | 1.52 relative to wild type | 1.2 relative to wild type | 1.75 relative to wild type |
| BMP-7 variant R134K (ligand, In conditioned media; numbering on mature BMP-7) STGGKQRSQNRSKTPKNQEALRMASVAENSSSDQRQACKKHELYVSFRDLGWQDWIIAPEGYAAYYCEGECAFPLNSYMNATNHAIVQTLVHFINPETVPKPCCAPTQLNAISVLYFDDSSNVILKKYRNMVVKACGCH | 1.11 relative to wild type | 0.91 relative to wild type | 1.18 relative to wild type | 1.05 relative to wild type |
| BMP-7 variant Y78D (ligand, In conditioned media; numbering on mature BMP-7) STGGKQRSQNRSKTPKNQEALRMASVAENSSSDQRQACKKHELYVSFRDLGWQDWIIAPEGYAAYYCEGECAFPLNSDMNATNHAIVQTLVHFINPETVPKPCCAPTQLNAISVLYFDDSSNVILKKYRNMVVRACGCH | 2.01 relative to wild type | 2.72 relative to wild type | 1.93 relative to wild type | 1.05 relative to wild type |
| BMP-7 variant V26N (ligand, In conditioned media; numbering on mature BMP-7) STGGKQRSQNRSKTPKNQEALRMASNAENSSSDQRQACKKHELYVSFRDLGWQDWIIAPEGYAAYYCEGECAFPLNSYMNATNHAIVQTLVHFINPETVPKPCCAPTQLNAISVLYFDDSSNVILKKYRNMVVRACGCH | 1.43 relative to wild type | 0.97 relative to wild type | 1 relative to wild type | 1.14 relative to wild type |
| BMP-7 variant W55N (ligand, In conditioned media; numbering on mature BMP-7) STGGKQRSQNRSKTPKNQEALRMASVAENSSSDQRQACKKHELYVSFRDLGWQDNIIAPEGYAAYYCEGECAFPLNSYMNATNHAIVQTLVHFINPETVPKPCCAPTQLNAISVLYFDDSSNVILKKYRNMVVRACGCH | 0 relative to wild type | 0.82 relative to wild type | 0.41 relative to wild type | 0.35 relative to wild type |
| BMP-7 variant Y44T (ligand, In conditioned media; numbering on mature BMP-7) STGGKQRSQNRSKTPKNQEALRMASVAENSSSDQRQACKKHELTVSFRDLGWQDWIIAPEGYAAYYCEGECAFPLNSYMNATNHAIVQTLVHFINPETVPKPCCAPTQLNAISVLYFDDSSNVILKKYRNMVVRACGCH | 1.33 relative to wild type | 0.25 relative to wild type | 0.36 relative to wild type | 1.09 relative to wild type |
| BMP-7 variant W52A (ligand, In conditioned media; numbering on mature BMP-7) STGGKQRSQNRSKTPKNQEALRMASVAENSSSDQRQACKKHELYVSFRDLGAQDWIIAPEGYAAYYCEGECAFPLNSYMNATNHAIVQTLVHFINPETVPKPCCAPTQLNAISVLYFDDSSNVILKKYRNMVVRACGCH | 0.33 relative to wild type | 1.25 relative to wild type | 1.69 relative to wild type | 0.92 relative to wild type |
| BMP-7 variant S77P (ligand, In conditioned media; numbering on mature BMP-7) STGGKQRSQNRSKTPKNQEALRMASVAENSSSDQRQACKKHELYVSFRDLGWQDWIIAPEGYAAYYCEGECAFPLNPYMNATNHAIVQTLVHFINPETVPKPCCAPTQLNAISVLYFDDSSNVILKKYRNMVVRACGCH | 0.79 relative to wild type | 0.91 relative to wild type | 1 relative to wild type | 0.58 relative to wild type |
| BMP-7 variant V26G (ligand, In conditioned media; numbering on mature BMP-7) STGGKQRSQNRSKTPKNQEALRMASGAENSSSDQRQACKKHELYVSFRDLGWQDWIIAPEGYAAYYCEGECAFPLNSYMNATNHAIVQTLVHFINPETVPKPCCAPTQLNAISVLYFDDSSNVILKKYRNMVVRACGCH | 1.66 relative to wild type | 1 relative to wild type | 1.07 relative to wild type | 1.08 relative to wild type |
| BMP-7 variant S77T (ligand, In conditioned media; numbering on mature BMP-7) STGGKQRSQNRSKTPKNQEALRMASVAENSSSDQRQACKKHELYVSFRDLGWQDWIIAPEGYAAYYCEGECAFPLNTYMNATNHAIVQTLVHFINPETVPKPCCAPTQLNAISVLYFDDSSNVILKKYRNMVVRACGCH | 0.79 relative to wild type | 0.97 relative to wild type | 1.15 relative to wild type | 0.77 relative to wild type |
| BMP-7 variant Y44N (ligand, In conditioned media; numbering on mature BMP-7) STGGKQRSQNRSKTPKNQEALRMASVAENSSSDQRQACKKHELNVSFRDLGWQDWIIAPEGYAAYYCEGECAFPLNSYMNATNHAIVQTLVHFINPETVPKPCCAPTQLNAISVLYFDDSSNVILKKYRNMVVRACGCH | 1.81 relative to wild type | 1.46 relative to wild type | 0.45 relative to wild type | 2.05 relative to wild type |
| BMP-7 variant V123G (ligand, In conditioned media; numbering on mature BMP-7) STGGKQRSQNRSKTPKNQEALRMASVAENSSSDQRQACKKHELYVSFRDLGWQDWIIAPEGYAAYYCEGECAFPLNSYMNATNHAIVQTLVHFINPETVPKPCCAPTQLNAISVLYFDDSSNGILKKYRNMVVRACGCH | 0.17 relative to wild type | 0.22 relative to wild type | 0.53 relative to wild type | 0.67 relative to wild type |
